Reference: patent publication US20260103529A1, “Amino Acid Sequences Directed Against the Melanocortin 4 Receptor and Polypeptides Comprising the Same for the Treatment of MC4R-Related Diseases and Disorders” (Confo Therapeutics N.V., priority 2022, published 2026)
Read-outs that look alike come from different tables or passages of the source.

Assays:
[1] = system: moderately pigmented normal human epidermal melanocytes (NHEM-MP); experiment: In vitro pigmentation assay, melanin synthesis, 2D NHEM moderately pigmented; type: cell-based; details: 10 days
Method: (§1) Highly and moderately pigmented melanocytes were seeded in 24-well plates and cultured in culture medium for 24 hours. The medium was then replaced by culture medium containing or not (control) the test compounds or the reference compounds (L-tyrosine at 1 mM, IBMX at 100 and 200 μM and NDP-MSH at 10 μM). The cells were then incubated for 10 days with treatment renewal at day 3 and day 7. All experimental conditions were performed in n=3. At the end of the incubation time, the culture supernatants were removed, and melanin was extracted by cell lysis using a 0.5 N NaOH solution. The optical density (OD) of each experimental point was measured at 405 nm and melanin quantity was determined according to melanin standard curve (standard curve ranging from 0.39 to 100 μg/ml). The results were expressed in μg/ml of melanin. […] NHEM-HP response to L-tyrosine and NDP-MSH was stronger than in NHEM-MP while IBMX induced a stronger response in the NHEM-MP.

[2] = system: highly pigmented normal human epidermal melanocytes (NHEM-HP); experiment: In vitro pigmentation assay, melanin synthesis, 2D NHEM highly pigmented; type: cell-based; details: 10 μM, 10 days
Method: as §1

DIO mice = experiment: Diet-induced obese (DIO) mouse study, acute setting, ICV administration; type: in vivo
Method: The mouse studies described in Examples 2 and 3 were performed at a fully AAALAC accredited unit (Gubra, Denmark), and all animal experiments were conducted in accordance with the CRO's bioethical guidelines, which are fully compliant to internationally accepted principles for the care and use of laboratory animals. All experiments were licensed by the Danish Animal Experimentation Council. This animal model is based on male C57BI/6J mice that are fed for a minimum of 18 weeks a 60% high fat diet that result in rapid weight gain. The mice were obtained from commercial vendors in Europe and United States transferred to Gubra's animal unit. The animal room environment is controlled (targeted ranges: temperature 21±2° C.; relative humidity 50±10%). The animals are maintained on a reversed 12 h light/dark cycle and have access to plenty of bedding material, shelters and chewing sticks. Animals were dosed just before lights went off.
Male DIO mice (5 weeks of age at time of arrival and HF diet induction, 46 weeks of age at study start, n=50) had ad libitum access to 60% high fat diet (D12492, Research diets) and water. The DIO mice were acclimatized to an automated real-time food intake monitoring system (MoNI system) individually housed in the system for 14 days prior to study start. The animals went through ICV cannulation on study day −6/−5 and on study day−1, animals were randomized into 5 treatment groups (n=8 per group) based on body weight (PM, day−2).

human wild type MC1R = target: T1, human wild type MC1R (Homo sapiens, UniProt Q01726); experiment: cAMP GloSensor assay, MC1R; type: cell-based
T1 construct: expressed in transfected cells; host or cells: HEK293 / HEK 293T, pcDNA3.1(+)

human wild type MC4R = human wild type MC4R (Homo sapiens, UniProt P32245); experiment: cAMP signaling assay (Lance Ultra HTRF); type: cell-based; parameters: double Twin Strep tag; expressed in transfected cells; host or cells: HEK293; details: purified nanobodies, human MC4R-overexpressing HEK293 cells, read-out: potencies, MC4R-mediated dose-dependent cAMP accumulation
Method: (§2) To confirm MC4R activation, dose-dependent nanobody-induced cAMP signaling was assessed (Lance Ultra HTRF). […] Binding of pN162 to the human melanocortin receptor subtypes MC1R, MC2R, MC3R, MC4R or MC5R transiently expressed as Flag-tagged receptors in HEK293T cells was assessed by flow cytometry.

human MC1R = target: T2, human MC1R (Homo sapiens, UniProt Q01726); experiment: Flow cytometry binding to Flag-tagged receptor in HEK293T cells, MC1R; details: 1 μM
T2 construct: Flag; expressed in transfected cells; host or cells: HEK293T
Method: as §2

human wild type MC3R = target: T3, human wild type MC3R (Homo sapiens, UniProt P41968); experiment: cAMP GloSensor assay, MC3R; type: cell-based
T3 construct: expressed in transfected cells; host or cells: HEK293 / HEK 293T, pcDNA3.1(+)

human wild type MC5R = target: T4, human wild type MC5R (Homo sapiens, UniProt P33032); experiment: cAMP GloSensor assay, MC5R; type: cell-based
T4 construct: expressed in transfected cells; host or cells: HEK293 / HEK 293T, pcDNA3.1(+)

WT human MC4R = target: T5, WT human MC4R (Homo sapiens, UniProt P32245); experiment: Gs ConfoSensor recruitment assay; type: cell-based; details: for EC50: WT human MC4R-expressing HEK293T cells
T5 construct: Flag (N); expressed in transfected cells; host or cells: HEK293T

[3] = pN162 0.5 and 5 nmol ICV on day 0 and day 2, study day 4
[4] = GloSensor head-to-head receptor subtype comparison

T5 sequence (P32245 whole entry): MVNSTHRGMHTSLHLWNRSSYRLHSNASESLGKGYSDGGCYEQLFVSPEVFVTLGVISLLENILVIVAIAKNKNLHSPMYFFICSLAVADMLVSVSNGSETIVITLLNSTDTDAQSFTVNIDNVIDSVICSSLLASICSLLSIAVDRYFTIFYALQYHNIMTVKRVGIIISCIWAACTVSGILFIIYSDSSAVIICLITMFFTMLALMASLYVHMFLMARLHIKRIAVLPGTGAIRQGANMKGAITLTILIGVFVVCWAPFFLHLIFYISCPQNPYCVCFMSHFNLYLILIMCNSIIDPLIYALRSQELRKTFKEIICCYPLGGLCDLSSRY
T1 sequence (Q01726 whole entry): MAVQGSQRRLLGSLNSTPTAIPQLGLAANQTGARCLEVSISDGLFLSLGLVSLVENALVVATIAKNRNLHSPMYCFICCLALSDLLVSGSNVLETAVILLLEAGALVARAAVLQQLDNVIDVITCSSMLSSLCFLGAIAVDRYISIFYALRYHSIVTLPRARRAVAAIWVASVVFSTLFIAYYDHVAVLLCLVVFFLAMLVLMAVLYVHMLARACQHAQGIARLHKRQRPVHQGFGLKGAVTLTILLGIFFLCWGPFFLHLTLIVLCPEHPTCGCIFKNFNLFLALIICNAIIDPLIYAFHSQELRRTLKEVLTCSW
T4 sequence (P33032 whole entry): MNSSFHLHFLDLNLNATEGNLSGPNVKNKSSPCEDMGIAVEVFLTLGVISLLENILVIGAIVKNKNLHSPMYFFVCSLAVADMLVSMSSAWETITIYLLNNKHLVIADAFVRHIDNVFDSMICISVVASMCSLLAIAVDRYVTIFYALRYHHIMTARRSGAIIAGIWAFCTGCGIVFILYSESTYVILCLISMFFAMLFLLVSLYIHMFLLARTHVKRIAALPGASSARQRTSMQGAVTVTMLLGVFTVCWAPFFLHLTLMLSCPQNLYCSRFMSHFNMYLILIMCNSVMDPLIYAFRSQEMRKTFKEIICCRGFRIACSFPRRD
T3 sequence (P41968 whole entry): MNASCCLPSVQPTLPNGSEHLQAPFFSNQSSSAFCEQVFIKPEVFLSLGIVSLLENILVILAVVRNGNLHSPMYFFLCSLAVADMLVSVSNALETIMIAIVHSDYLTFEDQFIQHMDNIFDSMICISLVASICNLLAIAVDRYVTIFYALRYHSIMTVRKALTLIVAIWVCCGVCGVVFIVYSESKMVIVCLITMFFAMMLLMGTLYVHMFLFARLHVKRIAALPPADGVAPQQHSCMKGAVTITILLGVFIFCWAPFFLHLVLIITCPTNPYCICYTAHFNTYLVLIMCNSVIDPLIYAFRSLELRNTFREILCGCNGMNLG
T2 sequence (Q01726 whole entry): as the sequence (Q01726 whole entry) above
Chain of human wild type MC4R (P32245 whole entry): as the sequence (P32245 whole entry) above

- cAMP potency (EC50) MC1R (human wild type MC1R; GloSensor, average EC50, human MC1R): No effect
- EC50 (human wild type MC4R): 0.7 nM
- binding to MC1R by flow cytometry (human MC1R): No binding could be detected
- cAMP potency (EC50) MC3R (human wild type MC3R; GloSensor, average EC50, human MC3R): No effect
- cAMP potency (EC50) MC5R (human wild type MC5R; GloSensor, average EC50, human MC5R): No effect
- Gs recruitment (WT human MC4R; Flag-tagged WT human MC4R HEK293T cells): dose-dependently recruits
- EC50 (WT human MC4R; No Ca^2+, read-out: Gs ConfoSensor No Ca^2+ (EC50)): 8.5 ± 2.1 nM
- dependence of Gs recruitment on Ca2+ ions (WT human MC4R; absence vs presence of 1 mM Ca2+): independent of Ca^2+ ions
- EC50 (WT human MC4R; read-out: Gs ConfoSensor 1 mM Ca^2+ (EC50), 1 mM Ca^2+): 12 ± 5 nM
B1: pN162: agonistic anti-MC4R VHH, SEQ ID NO: 184; parental clone for potency maturation (protein)
VHH: QVQLVESGGGLVQPGGSLRLSCAASGSAFSLNVMGWYRQTPGNQRALVAEITKDGSTNYADSAKGRFTISRDNAKNTVHLQMDSLKPEDTAVYYCKARTGRIVRPLDYWGQGTQVTVSS
modifications: pN0162
- modulation of melanin synthesis [1]: did not modulate
- melanin synthesis [2]: 89 % of the control
- cumulative food intake after first dose (DIO mice; pN162 0.5 and 5 nmol ICV): reduced by pN162 in a dose-dependent manner
- cumulative food intake compared to vehicle (DIO mice; [3]): reduced
- relative body weight compared to vehicle (DIO mice; [3]): reduced
- detectable cAMP signaling, MC1R (human wild type MC1R; [4]): only induced detectable signaling on MC4R
- detectable cAMP signaling, MC3R (human wild type MC3R; [4]): only induced detectable signaling on MC4R
- detectable cAMP signaling, MC5R (human wild type MC5R; [4]): only induced detectable signaling on MC4R
